# In patent US20130266516, “LAR Protein-Specific Ligand” (COMMISSARIAT A L'ENERGIE ATOMIQUE ET AUX ENERGIES, published 2013):
# B1: V8 aptamer (ssRNA)
# RNA: GGGAGAUGCUCUGUCAGACUACGACUGUCCCAGUAUGACGCGACUGCUUAGGUGGGAUGUUUCCCAUGCCUCGACUGGCUGGCAGGUUGAUGACAAG
# modifications: 2'-F on all pyrimidines, 2'-OH purines
# What was measured:
# Conditions in all cases: label: radiolabel, biotin or Alexa Fluor 647/680
# [1] = molecular target: T1, LAR protein (PTPRF, receptor-type protein tyrosine phosphatase F), endogenous on human cell lines (Homo sapiens, UniProt P10586 SEQ:30-1907); test: A-431 whole cells, Scatchard; Cmax 455 pM
# Protocol: (§1) The binding curves were obtained for each cell type. From the specific binding, and using the Scatchard representation, the Kd and the Cmax were calculated for each cell type. Knowing the Cmax and the number of cells during the binding, the inventors were able to deduce therefrom an approximate number of targets per cell.
# [2] = molecular target: T1, LAR protein (PTPRF, receptor-type …); test: MCF-7 whole cells, Scatchard analysis of radioligand-type cell binding; Cmax 251 pM
# Protocol: as §1
# [3] = molecular target: T1, LAR protein (PTPRF, receptor-type …); test: HEK293-KDR whole cells, Scatchard; Cmax 119 pM
# Protocol: as §1
# [4] = molecular target: T1, LAR protein (PTPRF, receptor-type …); test: MDA-MB-231 whole cells, Scatchard; Cmax 131 pM
# Protocol: as §1
# [5] = molecular target: T1, LAR protein (PTPRF, receptor-type …); test: HEK293 whole cells, Scatchard; Cmax 264 pM
# Protocol: as §1
# T1 sequence (P10586 30-1907): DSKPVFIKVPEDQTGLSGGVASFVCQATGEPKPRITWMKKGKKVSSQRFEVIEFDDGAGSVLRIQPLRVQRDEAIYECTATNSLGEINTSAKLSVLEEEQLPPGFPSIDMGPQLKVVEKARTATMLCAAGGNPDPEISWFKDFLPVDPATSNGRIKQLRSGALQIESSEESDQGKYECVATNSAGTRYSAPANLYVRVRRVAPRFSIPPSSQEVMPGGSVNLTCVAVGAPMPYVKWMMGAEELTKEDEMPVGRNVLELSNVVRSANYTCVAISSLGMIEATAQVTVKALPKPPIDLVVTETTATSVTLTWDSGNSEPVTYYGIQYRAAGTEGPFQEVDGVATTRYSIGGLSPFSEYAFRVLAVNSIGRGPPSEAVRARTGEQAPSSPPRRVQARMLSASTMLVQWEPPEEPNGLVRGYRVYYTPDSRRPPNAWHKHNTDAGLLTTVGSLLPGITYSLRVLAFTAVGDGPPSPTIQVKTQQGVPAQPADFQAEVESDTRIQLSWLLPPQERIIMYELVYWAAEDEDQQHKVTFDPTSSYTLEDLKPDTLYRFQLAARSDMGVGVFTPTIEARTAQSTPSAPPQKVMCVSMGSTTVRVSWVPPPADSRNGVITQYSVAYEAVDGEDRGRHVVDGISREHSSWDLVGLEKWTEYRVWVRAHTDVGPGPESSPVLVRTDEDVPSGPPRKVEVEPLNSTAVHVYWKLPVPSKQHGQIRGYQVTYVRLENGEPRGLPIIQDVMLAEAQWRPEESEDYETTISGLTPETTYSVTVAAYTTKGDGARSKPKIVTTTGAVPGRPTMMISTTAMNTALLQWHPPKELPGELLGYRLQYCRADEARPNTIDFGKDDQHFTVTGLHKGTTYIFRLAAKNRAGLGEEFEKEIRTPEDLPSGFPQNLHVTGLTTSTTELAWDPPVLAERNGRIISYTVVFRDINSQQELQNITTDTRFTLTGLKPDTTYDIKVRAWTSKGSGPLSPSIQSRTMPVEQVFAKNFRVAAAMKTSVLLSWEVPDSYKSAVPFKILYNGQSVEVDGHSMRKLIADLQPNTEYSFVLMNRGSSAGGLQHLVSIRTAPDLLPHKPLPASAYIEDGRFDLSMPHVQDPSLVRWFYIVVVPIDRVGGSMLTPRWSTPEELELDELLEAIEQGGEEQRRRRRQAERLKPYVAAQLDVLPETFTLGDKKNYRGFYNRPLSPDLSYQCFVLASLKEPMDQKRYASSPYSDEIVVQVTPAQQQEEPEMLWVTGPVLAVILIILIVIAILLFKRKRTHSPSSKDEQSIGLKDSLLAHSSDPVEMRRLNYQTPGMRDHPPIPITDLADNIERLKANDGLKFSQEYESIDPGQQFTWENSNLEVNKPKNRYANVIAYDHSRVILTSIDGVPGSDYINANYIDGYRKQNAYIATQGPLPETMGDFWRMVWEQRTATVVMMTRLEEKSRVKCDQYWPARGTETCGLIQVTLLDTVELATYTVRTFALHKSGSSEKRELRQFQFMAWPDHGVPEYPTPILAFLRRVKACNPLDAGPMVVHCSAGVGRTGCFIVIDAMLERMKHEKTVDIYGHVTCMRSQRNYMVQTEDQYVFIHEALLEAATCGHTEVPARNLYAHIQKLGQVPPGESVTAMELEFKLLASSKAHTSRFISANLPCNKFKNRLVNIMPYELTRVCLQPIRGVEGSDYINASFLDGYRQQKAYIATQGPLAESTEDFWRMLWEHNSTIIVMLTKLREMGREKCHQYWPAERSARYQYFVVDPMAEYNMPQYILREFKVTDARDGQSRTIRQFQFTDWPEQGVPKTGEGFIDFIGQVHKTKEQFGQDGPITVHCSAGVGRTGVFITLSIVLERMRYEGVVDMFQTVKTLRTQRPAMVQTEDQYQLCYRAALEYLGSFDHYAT
binder,measurement,setting,value
B1,Kd,[1],5.6 nM
same,Kd,[2],1.6 nM
same,Kd,[3],5.3 nM
same,Kd,[4],3 nM
same,Kd,[5],3.8 nM
